Source: US20210238276A1 (INTEGRAL MOLECULAR, published 2021)
Where a chain is given by its changes, count along the chain named.

Tests used:
Assay in all cases: flow cytometry, alanine-scan library in HEK-293T, with cytochalasin B
hsGLUT4 G65A = biological target: T1, hsGLUT4 G65A (human, UniProt P14672 1-509)
T1 sequence: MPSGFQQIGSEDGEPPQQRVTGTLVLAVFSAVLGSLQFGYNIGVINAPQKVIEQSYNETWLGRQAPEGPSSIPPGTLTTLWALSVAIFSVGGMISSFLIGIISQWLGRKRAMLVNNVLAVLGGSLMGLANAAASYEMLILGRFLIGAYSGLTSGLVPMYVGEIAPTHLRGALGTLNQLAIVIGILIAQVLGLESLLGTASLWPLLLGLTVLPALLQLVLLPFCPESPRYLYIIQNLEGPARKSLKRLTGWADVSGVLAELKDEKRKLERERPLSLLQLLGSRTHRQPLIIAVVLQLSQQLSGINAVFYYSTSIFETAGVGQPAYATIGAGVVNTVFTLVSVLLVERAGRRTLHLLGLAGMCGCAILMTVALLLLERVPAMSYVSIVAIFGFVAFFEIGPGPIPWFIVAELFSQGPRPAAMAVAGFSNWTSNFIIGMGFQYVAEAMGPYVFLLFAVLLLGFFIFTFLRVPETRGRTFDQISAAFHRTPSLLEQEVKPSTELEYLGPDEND
Method: (§1) Because of the state-dependence of the isolated MAbs, we next wished to understand the mechanism by which each MAb could recognize GLUT4 in its different conformations. The residues required for binding of each MAb were determined using shotgun mutagenesis comprehensive alanine scanning (Davidson E & Doranz B J (2014) A High-Throughput Shotgun Mutagenesis Approach to Mapping B-cell Antibody Epitopes. Immunology, which is hereby incorporated by reference in its entirety). All residues of hsGLUT4 were individually mutated to alanine, with existing alanines changed to serines. Mutations were obtained for 508 of the 509 residues of GLUT4 (excluding the initiating methionine). The entire mutation library was transfected into human HEK-293T cells in a 384-well array format (one clone per well) and assessed for immunoreactivity using high-throughput flow cytometry.
(§2) HEK-293T cells were transfected by CaPO₄ with plasmids in 6-well culture plates (Falcon) at 750,000 cells/well. At 48 hours post transfection, cells were stained with anti-V5 and anti-GLUT4 MAbs (purified scFv, 2 μg/ml) followed by biotinylated goat anti-mouse or human antibody (1:500) and streptavidin-PerCP (1:500). Fluorescence was detected using an Intellicyt high-throughput flow cytometer (HTFC; Intellicyt, Albuquerque, N. Mex.). For cell permeabilization, cells were treated with saponin at 0.1% in PBS for 20 minutes. To discriminate intact (live) and permeabilized (dead) cells without the use of detergent, propidium iodide (PI) was added to HEK-293T cells at 1 ug/ml just prior to flow cytometry. Where indicated, cytochalasin B (Sigma) was used at a final concentration of 10 uM and phloretin (Sigma) was used at a final concentration of 100 uM, each added in 10% NGS for 30 minutes prior to antibody staining as well as included with the primary antibody.

hsGLUT4 E345A = biological target: T2, hsGLUT4 E345A (human, UniProt P14672 1-509)
T2 sequence: T1 sequence with A65G, E345A
Method: as §1, §2

hsGLUT4 G446A = biological target: T3, hsGLUT4 G446A (human, UniProt P14672 1-509)
T3 sequence: T1 sequence with A65G, G446A
Method: as §1, §2

hsGLUT4 E507A = biological target: T4, hsGLUT4 E507A (human, UniProt P14672 1-509)
T4 sequence: T1 sequence with A65G, E507A
Method: as §1, §2

% of binding to wild type GLUT4 (hsGLUT4 G65A): 95% | % of binding to wild type GLUT4 (hsGLUT4 E345A): 80% | % of binding to wild type GLUT4 (hsGLUT4 G446A): 43% | % of binding to wild type GLUT4 (hsGLUT4 E507A): 97%
B1: AB102 (Fc fusion)
scFv: ALTQPSSVSANLGGTVKITCSGGGSYGYGWYQQKSPGSAPVTVIYSNDQRPSDIPSRFSGSKSGSTATLTITGVRAEDEAIYYCGSTDSDYVGIFGAGTTLTVLGQSSRSSGGGGSSGGGGSAVTLDESGGGLQTPGGTLSLVCKASGFDFSSYATIWVRQAPGKGLEWVAGISGTGTGSSTGYAPAVKGRATISRDNGQSTVRLQLNNLRAEDTGSYFCAKSTGYGDSWIYPDSIDAWGHGTEVIVSS
notes: also called MAb AB102; not shown: Fc fragment of human IgG1, cloned in frame with the scFv
